Laboratory results from IntAct's records for PubMed 20627101.

B1: Induced myeloid leukemia cell differentiation protein Mcl-1 homolog (Mus musculus), P97287 (parent)
chain: MFGLRRNAVIGLNLYCGGASLGAGGGSPAGARLVAEEAKARREGGGEAALLPGARVVARPPPVGAEDPDVTASAERRLHKSPGLLAVPPEEMAASAAAAIVSPEEELDGCEPEAIGKRPAVLPLLERVSEAAKSSGADGSLPSTPPPPEEEEDDLYRQSLEIISRYLREQATGSKDSKPLGEAGAAGRRALETLRRVGDGVQRNHETAFQGMLRKLDIKNEGDVKSFSRVMVHVFKDGVTNWGRIVTLISFGAFVAKHLKSVNQESFIEPLAETITDVLVRTKRDWLVKQRGWDGFVEFFHVQDLEGGIRNVLLAFAGVAGVGAGLAYLIR

Variants of: B1
Conditions: with ch60_human HSPD1, P10809
Chain of ch60_human HSPD1, P10809 (P10809 whole entry): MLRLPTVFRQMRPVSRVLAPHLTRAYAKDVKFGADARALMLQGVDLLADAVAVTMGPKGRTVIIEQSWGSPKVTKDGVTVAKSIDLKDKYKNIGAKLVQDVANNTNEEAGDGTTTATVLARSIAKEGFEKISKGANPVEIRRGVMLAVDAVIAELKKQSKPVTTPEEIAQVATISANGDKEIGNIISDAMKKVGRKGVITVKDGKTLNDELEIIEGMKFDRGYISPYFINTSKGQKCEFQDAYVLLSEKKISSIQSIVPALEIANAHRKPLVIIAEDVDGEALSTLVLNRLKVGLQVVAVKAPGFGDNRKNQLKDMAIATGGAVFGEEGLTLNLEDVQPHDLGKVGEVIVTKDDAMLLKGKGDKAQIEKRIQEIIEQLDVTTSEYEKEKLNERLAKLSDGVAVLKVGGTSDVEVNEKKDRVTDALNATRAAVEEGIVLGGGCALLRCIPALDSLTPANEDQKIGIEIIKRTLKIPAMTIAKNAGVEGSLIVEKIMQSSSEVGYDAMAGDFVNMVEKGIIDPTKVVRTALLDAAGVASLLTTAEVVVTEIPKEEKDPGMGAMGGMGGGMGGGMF

| Variant | effect of a mutation on the interaction |
| --- | --- |
| R32G | disrupting interaction |
| R6G | disrupting interaction |
| R5G | disrupting interaction |
